Experimental data from patent US20200147235A1 (AbbVie / Abbott, published 2020).
Numbering of substitutions follows the chain as printed.

T1: Human CD98 ECD with N-terminal His-tag (human, UniProt P08195 105-529)
T1 construct: The entry includes the linker and the polyhistidine tag; also called huCD98 ECD
T1 sequence: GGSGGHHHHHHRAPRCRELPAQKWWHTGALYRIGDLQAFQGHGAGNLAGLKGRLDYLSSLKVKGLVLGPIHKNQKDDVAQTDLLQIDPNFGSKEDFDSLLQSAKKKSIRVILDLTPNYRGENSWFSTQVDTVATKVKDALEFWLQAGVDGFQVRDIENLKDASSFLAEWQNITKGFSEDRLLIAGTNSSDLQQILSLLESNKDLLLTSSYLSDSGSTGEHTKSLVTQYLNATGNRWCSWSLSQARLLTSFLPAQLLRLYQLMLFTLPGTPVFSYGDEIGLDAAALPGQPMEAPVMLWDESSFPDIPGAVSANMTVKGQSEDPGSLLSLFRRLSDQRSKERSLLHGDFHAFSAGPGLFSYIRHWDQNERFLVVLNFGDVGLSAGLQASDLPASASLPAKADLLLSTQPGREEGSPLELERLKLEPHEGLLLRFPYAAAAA

T2: Cynomolgus monkey CD98 ECD with C-terminal His-tag (SEQ ID NO: 127) (cynomolgus monkey, UniProt P08195 105-529 (human entry))
T2 construct: The entry includes the linker and the polyhistidine tag; also called cyCD98 ECD
T2 chain: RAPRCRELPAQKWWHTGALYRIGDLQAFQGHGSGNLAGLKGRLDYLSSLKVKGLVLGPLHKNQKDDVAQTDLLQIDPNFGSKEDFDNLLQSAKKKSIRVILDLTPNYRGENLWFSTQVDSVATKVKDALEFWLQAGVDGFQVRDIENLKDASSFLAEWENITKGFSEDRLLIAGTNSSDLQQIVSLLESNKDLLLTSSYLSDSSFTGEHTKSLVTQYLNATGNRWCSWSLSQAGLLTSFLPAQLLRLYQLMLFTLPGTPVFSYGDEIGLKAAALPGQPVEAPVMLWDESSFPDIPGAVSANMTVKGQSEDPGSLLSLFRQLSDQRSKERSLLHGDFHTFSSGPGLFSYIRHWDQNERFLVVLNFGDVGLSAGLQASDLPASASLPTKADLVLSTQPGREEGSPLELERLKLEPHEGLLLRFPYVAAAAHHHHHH

T3: Human CD98 ECD with C-terminal His-tag (human, UniProt P08195 105-529)
T3 construct: The entry includes the linker and the polyhistidine tag; also called huCD98 ECD
T3 sequence: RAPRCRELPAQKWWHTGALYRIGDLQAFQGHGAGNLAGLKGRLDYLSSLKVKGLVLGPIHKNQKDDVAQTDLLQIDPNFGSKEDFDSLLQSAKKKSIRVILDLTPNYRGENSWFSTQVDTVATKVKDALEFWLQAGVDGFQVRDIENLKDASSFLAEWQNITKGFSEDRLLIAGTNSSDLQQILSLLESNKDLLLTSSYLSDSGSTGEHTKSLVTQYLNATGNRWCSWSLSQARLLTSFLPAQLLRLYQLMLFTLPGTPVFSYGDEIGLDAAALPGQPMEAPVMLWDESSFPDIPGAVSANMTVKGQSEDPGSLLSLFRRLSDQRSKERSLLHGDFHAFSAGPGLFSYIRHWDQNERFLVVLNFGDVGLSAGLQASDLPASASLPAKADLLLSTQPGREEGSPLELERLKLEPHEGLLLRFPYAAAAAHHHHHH

T4: Cynomolgus monkey CD98 ECD with C-terminal His-tag (cynomolgus monkey, UniProt P08195 105-529 (human entry))
T4 construct: The entry includes the linker and the polyhistidine tag; also called cyCD98 ECD
T4 chain: T2 chain

B1: huAb105 (antibody, V domains shown)
VH: EVQLVESGGGLVQPGGSLRLSCAASGFTFSDYTMAWVRQAPGKGLEWVATIIYSGRGTYYRDAVKGRFTISRDNAKNTLYLQMNSLRAEDTAVYYCARQSDHTYYYWGYFDYWGQGTMVTVSS
VL: DIVMTQTPLSLPVTPGEPASINCKSSQSLLFSGNQKNYLAWYLQKPGQSPQLLIYWASTRQSGVPDRFSGSGSGTDFTLKISRVEAEDVGIYYCQQYYDVPYTFGQGTKLEIK
notes: Framework re-engineered humanized clone (parent huAb15v1), expressed as full-length IgG
B2: huAb109 (antibody, V domains shown)
VH: B1 VH with S54D, G55A, H102D
VL: B1 VL with D99S, V100S
notes: Framework re-engineered humanized clone (parent huAb15v6), expressed as full-length IgG
B3: huAb106 (antibody, V domains shown)
VH: EVQLVQSGAEVKKPGASVKVSCKASGFTFSDYTMAWVRQAPGQGLEWVATIIYSGRGTYYRDAVKGRFTITRDNSTSTLYLELSSLRSEDTAVYYCARQSDHTYYYWGYFDYWGQGTMVTVSS
VL: B1 VL
notes: as for B1
B4: huAb108 (antibody, human IgG1, kappa, L234A L235A, V domains shown)
VH: B3 VH with H102D
VL: DIVMTQTPLSLPVTPGEPASINCKSSQSLLFSGNQKNYLAWYLQKPGQSPQLLIYWASTRQSGVPDRFSGSGSGTDFTLKISRVEAEDVGIYYCQQYYDVPYTFGQGTKLEIKR
notes: Framework re-engineered humanized clone (parent huAb15v2); also called CL-huAb108
B5: huAb110 (antibody, human IgG1, kappa, L234A L235A, V domains shown)
VH: B3 VH with S54D, G55A, H102D
VL: B4 VL with D99S, V100S
notes: Framework re-engineered humanized clone (parent huAb15v6); also called CL-huAb110
B6: huAb15v2 (antibody, V domains shown)
VH: B1 VH with L11V, G16R, A75S, N77S, H102D
VL: DIVMTQSPDSLAVSLGERATINCKSSQSLLFSGNQKNYLAWYQQKPGQSPKLLIYWASTRQSGVPDRFSGSGSGTDFTLTIRSLQAEDVAIYYCQQYYDVPYTFGQGTKLEIK
notes: Humanized, further engineered clone of chAb15, converted to IgG and expressed as a full-length antibody
B7: huAb15v6 (antibody, V domains shown)
VH: B1 VH with L11V, G16R, S54D, G55A, A75S, N77S, H102D
VL: B6 VL with D99S, V100S
notes: as for B6
B8: huAb15v1 (antibody, V domains shown)
VH: B1 VH with L11V, G16R, A75S, N77S
VL: B6 VL
notes: as for B6
B9: huAb15v3 (antibody, V domains shown)
VH: B1 VH with L11V, G16R, A75S, N77S, H102D
VL: B6 VL with D99G, V100S
notes: as for B6
B10: huAb15v4 (antibody, V domains shown)
VH: B1 VH with L11V, G16R, S54T, A75S, N77S, H102D
VL: B6 VL
notes: as for B6
B11: huAb15v7 (antibody, V domains shown)
VH: B1 VH with L11V, G16R, S54D, G55A, A75S, N77S, H102D
VL: B6 VL with D99G, V100S
notes: as for B6
B12: huAb15v5 (antibody, V domains shown)
VH: B1 VH with L11V, G16R, S54T, A75S, N77S, H102D
VL: B6 VL with D99S, V100S
notes: as for B6
B13: huAb3v1 (antibody, V domains shown)
VH: EVQLVESGGGLVQPGRSLRLSCTTSGFTFIDYYMSWVRQAPGKGLEWLGFIRNKANRYTTEYSASVKGRFTISRDNSKSILYLQMNSLKTEDTAVYYCTRDRPAWFVYWGQGTLVTVSS
VL: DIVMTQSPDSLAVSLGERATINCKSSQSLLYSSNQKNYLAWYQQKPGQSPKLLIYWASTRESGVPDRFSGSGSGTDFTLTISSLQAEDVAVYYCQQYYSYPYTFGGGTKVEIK
notes: Humanized, further engineered clone of chAb3, converted to IgG and expressed as a full-length antibody
B14: huAb3v2 (antibody, V domains shown)
VH: B13 VH with N56Y, R57G
VL: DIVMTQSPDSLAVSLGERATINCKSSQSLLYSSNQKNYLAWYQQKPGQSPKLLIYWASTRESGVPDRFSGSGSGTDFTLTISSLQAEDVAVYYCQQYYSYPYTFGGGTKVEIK
notes: as for B13

The binders below were run against T1, Human CD98 ECD with N-terminal His-tag (assay: SPR (Biacore), recombinant CD98 ECD).

Row | Binder | Kd [nM] | koff [s⁻¹] | kon [M⁻¹ s⁻¹]
1 | B1 | 0.17 | 2.4e-05 | 140000
2 | B2 | 1.1 | 0.00017 | 160000
3 | B3 | 0.16 | 2.2e-05 | 140000
4 | B4 | 0.55 | 4.1e-05 | 75000
5 | B5 | 2.3 | 0.0003 | 130000

Biological target: T2, Cynomolgus monkey CD98 ECD with …
Assay: SPR (Biacore), recombinant CD98 ECD

Row | Binder | Kd [nM] | koff [s⁻¹] | kon [M⁻¹ s⁻¹]
6 | B1 | 1.4 | 5.3e-05 | 38000
7 | B2 | 12 | 0.00031 | 26000
8 | B3 | 2.2 | 9.5e-05 | 43000
9 | B4 | 4.6 | 0.00014 | 29000
10 | B5 | 23 | 0.00051 | 23000

Each binder was assayed against T3, Human CD98 ECD with C-terminal His-tag (assay: SPR (Biacore), antibody captured on anti-Fc surface, CD98 ECD in solution).
Experimental: (§1) The binding kinetics of these purified mouse and rat monoclonal anti-CD98 antibodies for purified recombinant CD98 protein (extracellular domain. ECD) were determined by surface plasmon resonance-based measurements made on Biacore T100/T200 instruments (GE Healthcare, Piscataway, N.J.) at 25° C. using an anti-Fc capture assay approach. Binding kinetic measurements were made in the assay buffer HBS-EP+: 10 mM Hepes, pH 7.4, 150 mM NaCl, 3 mM EDTA, 0.05% Tween 20). For example, approximately 8000 RU of anti-Fc (species specific) polyclonal antibody (Thermo Fisher Scientific Inc. Rockford, Ill.) diluted in 10 mM sodium acetate (pH 4.5) was directly immobilized across a CM5 research grade biosensor chip using a standard amine coupling kit according to manufacturer's instructions and procedures at 25 μg/ml. Unreacted moieties on the biosensor surface were blocked with ethanolamine. The test antibody to be captured as a ligand was diluted in running buffer to ˜0.5 μg/mL and injected over anti-Fc surface at a flow rate of 10 μL/min, CD98 binding and dissociation were observed under a continuous flow rate of 80 μL/min. Human and cynomolgus monkey CD98 ECDs, both with a C-terminal His-tag, are used for this study (Table 3). After each cycle the anti-Fc capture surface was regenerated using 10 mM Glycine-HCl, pH 1.5. During the assay, all measurements were referenced against the capture surface alone (i.e., with no captured test antibody) and buffer-only injections (no antigen) were used for double referencing. For kinetic analysis, rate equations derived from the 1:1 Langmuir binding model were fitted simultaneously, globally and with mass transfer term included to multiple referenced antigen binding curves using Biacore T100T200 Evaluation software.
(§2) The binding kinetics of the recombinant anti-CD98 chimeric antibodies for purified recombinant CD98 protein (extracellular domain, ECD) were determined by surface plasmon resonance-based measurements, as described in the Example 4.

Row | Binder | Kd [nM] | koff [s⁻¹] | kon [M⁻¹ s⁻¹]
11 | B6 | 1.1 | 4.6e-05 | 42000
12 | B7 | 6.7 | 0.00026 | 38000
13 | B8 | 0.43 | 2.3e-05 | 53000
14 | B9 | 2 | 8.5e-05 | 44000
15 | B10 | 0.81 | 2.8e-05 | 35000
16 | B11 | 5.9 | 0.00021 | 35000
17 | B12 | 3.1 | 0.00013 | 41000
18 | B13 | 13 | 0.0023 | 180000
19 | B14 | 4.9 | 0.0013 | 260000

Biological target: T4, Cynomolgus monkey CD98 ECD with …
Assay: as above
Experimental: as §1, §2

Row | Binder | Kd [nM] | koff [s⁻¹] | kon [M⁻¹ s⁻¹]
20 | B6 | 2.3 | 4.8e-05 | 21000
21 | B7 | 34 | 0.00049 | 14000
22 | B8 | 1 | 2.6e-05 | 26000
23 | B9 | 7.6 | 0.00014 | 18000
24 | B10 | 2.6 | 5e-05 | 20000
25 | B11 | 30 | 0.00043 | 14000
26 | B12 | 11 | 0.00018 | 17000
27 | B13 | 23 | 0.00092 | 40000
28 | B14 | 17 | 0.00049 | 29000
